Measurements reported in patent publication US20240116985A1 (published 2024).
Starred links: 1 amine or outer side, 2 acyl side, 3 side chain; linkers in the order of their positions; H or OH if unused. Positions of bridges follow the written chain, without caps; N, C: chain ends. Non-standard residues stand in square brackets, D forms with d. Primed or numbered codes have the meaning given here. B5(26) = 2-amino-2-(pent-4-en-1-yl)hept-6-enoic acid (bis-pentenylglycine), stitching residue carrying two staples, C=CCCCC(CCCC=C)(N[*:1])C(=O)[*:2]; PyrS2″ = (S)-3-amino-1-((pent-4-en-1-yloxy)carbonyl)pyrrolidine-3-carboxylic acid (stapling residue), C=CCCCOC(=O)N1CC[C@@](N[*:1])(C(=O)[*:2])C1; (TfePpz)GlnR = (S)-2-amino-5-oxo-5-(4-(2,2,2-trifluoroethyl)piperazin-1-yl)pentanoic acid, O=C(CC[C@H](N[*:1])C(=O)[*:2])N1CCN(CC(F)(F)F)CC1; B5(23) = 2-amino-2-(pent-4-en-1-yl)hept-6-enoic acid (2,2-bis(4-pentenyl)glycine), stitching residue, C=CCCCC(CCCC=C)(N[*:1])C(=O)[*:2]; B5(24) = 2-amino-2-(pent-4-en-1-yl)hept-6-enoic acid, 2,2-bis(4-pentenyl)glycine (stitching residue), C=CCCCC(CCCC=C)(N[*:1])C(=O)[*:2]; B5(4) = 2,2-bis(4-pentenyl)glycine = 2-amino-2-(pent-4-en-1-yl)hept-6-enoic acid (stitching residue), C=CCCCC(CCCC=C)(N[*:1])C(=O)[*:2]; B5(5) = 2,2-bis(4-pentenyl)glycine, 2-amino-2-(pent-4-en-1-yl)hept-6-enoic acid (stitching residue), C=CCCCC(CCCC=C)(N[*:1])C(=O)[*:2]; B5(21) = 2-amino-2-(pent-4-en-1-yl)hept-6-enoic acid, bis(4-pentenyl)glycine (stitching residue), C=CCCCC(CCCC=C)(N[*:1])C(=O)[*:2]; TfeGA = (S)-2-amino-3-((carboxymethyl)(2,2,2-trifluoroethyl)amino)propanoic acid, O=C([C@H](CN(CC(=O)[*:3])CC(F)(F)F)N[*:1])[*:2]; PyrS2 = (S)-3-amino-1-((pent-4-en-1-yloxy)carbonyl)pyrrolidine-3-carboxylic acid, C=CCCCOC(=O)N1CC[C@@](N[*:1])(C(=O)[*:2])C1; B5(12) = 2-amino-2-(pent-4-en-1-yl)hept-6-enoic acid (two olefin side chains), C=CCCCC(CCCC=C)(N[*:1])C(=O)[*:2]; B5(19) = 2-amino-2-(pent-4-en-1-yl)hept-6-enoic acid (bis(4-pentenyl)glycine), C=CCCCC(CCCC=C)(N[*:1])C(=O)[*:2]; (Ac)GA = (S)-2-amino-3-(N-(carboxymethyl)acetamido)propanoic acid, CC(=O)N(CC(=O)[*:3])C[C@H](N[*:1])C(=O)[*:2]; GA = (S)-2-amino-3-((carboxymethyl)amino)propanoic acid, O=C([C@H](CNCC(=O)[*:3])N[*:1])[*:2]; B5 = 2-amino-2-(pent-4-en-1-yl)hept-6-enoic acid, C=CCCCC(CCCC=C)(N[*:1])C(=O)[*:2]; S(OMe) = O-methyl-L-serine, COC[C@H](N[*:1])C(=O)[*:2]; Phe(3-CONH2) = NC(=O)c1cccc(C[C@H](N)C(=O)O)c1; Phe(3-COOH) = N[C@@H](Cc1cccc(C(=O)O)c1)C(=O)O; His(τ-Me) = Cn1cnc(C[C@H](N)C(=O)O)c1; Bta = N[C@@H](Cc1csc2ccccc12)C(=O)O; His(π-Me) = Cn1cncc1C[C@H](N)C(=O)O; Lys(iPr) = CC(C)NCCCC[C@H](N)C(=O)O; αAllylPro = C=CC[C@@]1(C(=O)O)CCCN1; tBuAla = CC(C)(C)C[C@H](N)C(=O)O; 3Thi = N[C@@H](Cc1ccsc1)C(=O)O; Cha = N[C@@H](CC1CCCCC1)C(=O)O; S8 = C=CCCCCCC[C@](C)(N)C(=O)O; PyrS2(4) = not defined here; TfeGA″ = not defined here; hSer = N[C@@H](CCO)C(=O)O; Nle = CCCC[C@H](N)C(=O)O; Aib = CC(C)(N)C(=O)O

T1: B-cat-Halo (beta-catenin HaloTag construct transfected into HEK293 cells) (UniProt P35222 1-781)
T1 sequence (looked up): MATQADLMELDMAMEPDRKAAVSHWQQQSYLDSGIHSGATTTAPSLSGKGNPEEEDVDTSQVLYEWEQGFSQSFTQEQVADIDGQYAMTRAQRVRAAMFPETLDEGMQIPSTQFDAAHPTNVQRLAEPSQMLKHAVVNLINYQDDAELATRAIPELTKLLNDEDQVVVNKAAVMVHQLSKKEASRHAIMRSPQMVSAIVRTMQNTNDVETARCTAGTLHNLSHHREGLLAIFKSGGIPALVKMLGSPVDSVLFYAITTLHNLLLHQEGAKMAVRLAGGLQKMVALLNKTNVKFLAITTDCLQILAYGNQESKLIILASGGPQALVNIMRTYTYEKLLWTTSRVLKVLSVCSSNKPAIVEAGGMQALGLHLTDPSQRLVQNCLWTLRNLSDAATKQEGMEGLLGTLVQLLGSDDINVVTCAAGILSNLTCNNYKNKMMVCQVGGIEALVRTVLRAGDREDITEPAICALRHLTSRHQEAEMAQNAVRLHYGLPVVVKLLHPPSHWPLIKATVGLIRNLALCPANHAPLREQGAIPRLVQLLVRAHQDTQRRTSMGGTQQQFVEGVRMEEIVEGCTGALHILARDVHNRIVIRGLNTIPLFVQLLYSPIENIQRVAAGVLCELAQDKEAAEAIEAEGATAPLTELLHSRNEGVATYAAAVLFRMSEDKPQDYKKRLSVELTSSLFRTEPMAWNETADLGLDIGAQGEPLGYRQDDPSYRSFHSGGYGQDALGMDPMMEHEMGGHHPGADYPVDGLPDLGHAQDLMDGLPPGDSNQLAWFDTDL

T2: B-cat-Halo (beta-catenin HaloTag fusion expressed in HEK293 cells) (UniProt P35222 1-781)
T2 sequence (looked up): T1 sequence (looked up)

T3: B-cat-Halo (UniProt P35222 1-781)
T3 sequence (looked up): T1 sequence (looked up)

T4: full-length beta-Catenin (Uniprot ID P35222) (Homo sapiens (Human), UniProt P35222 1-781)
T4 construct: The assay text says 'full-length'; also called bCat; B-Catenin
T4 sequence: T1 sequence (looked up)

B1: I-1935 (peptide)
peptide: Ac-[αAllylPro]D[tBuAla][B5(19)]D[TfeGA]AAF[(TfePpz)GlnR][PyrS2″][3Thi][Bta]Q-NH2
modifications: staple 1-4, 4-11
B2: I-1919 (peptide)
peptide: Ac-[αAllylPro]D[tBuAla][B5(4)]D[Phe(3-COOH)][Nle]AFL[PyrS2(4)][3Thi][Bta]A-NH2
modifications: staple 1-4, 4-11; not fully specified; printed as Ac-PL3-Asp-Npg-B5-Asp-3COOHF-nLeu-Ala-Phe-Leu-PyrS2-3Thi-BztA-Ala-NH2; reading uncertain
B3: I-1914 (peptide)
peptide: Ac-[αAllylPro]D[tBuAla][B5(12)]D[Phe(3-COOH)][Aib]AFL[PyrS2(4)][3Thi][Bta]F-NH2
modifications: staple 1-4, 4-11; not fully specified; printed as Ac-PL3-Asp-Npg-B5-Asp-3COOHF-Aib-Ala-Phe-Leu-PyrS2-3Thi-BztA-Phe-NH2; reading uncertain
B4: I-1917 (peptide)
peptide: Ac-[αAllylPro]D[tBuAla][B5(4)]D[Phe(3-COOH)]KAFL[PyrS2(4)][3Thi][Bta]A-NH2
modifications: staple 1-4, 4-11; not fully specified; printed as Ac-PL3-Asp-Npg-B5-Asp-3COOHF-Lys-Ala-Phe-Leu-PyrS2-3Thi-BztA-Ala-NH2; reading uncertain
B5: I-1929 (peptide)
peptide: Ac-[αAllylPro]N[Cha][B5(19)]DQ[Lys(iPr)]AFN[PyrS2″][Phe(3-CONH2)][Bta][hSer]-NH2
modifications: staple 1-4, 4-11
B6: I-1916 (peptide)
peptide: Ac-[αAllylPro]D[tBuAla][B5(4)]D[Phe(3-COOH)]HAFL[PyrS2(4)][3Thi][Bta]A-NH2
modifications: staple 1-4, 4-11; not fully specified; printed as Ac-PL3-Asp-Npg-B5-Asp-3COOHF-His-Ala-Phe-Leu-PyrS2-3Thi-BztA-Ala-NH2; reading uncertain
B7: I-1915 (peptide)
peptide: Ac-[αAllylPro]D[tBuAla][B5(4)]D[Phe(3-COOH)][Lys(iPr)]AFL[PyrS2(4)][3Thi][Bta]A-NH2
modifications: staple 1-4, 4-11; not fully specified; printed as Ac-PL3-Asp-Npg-B5-Asp-3COOHF-iPrLys-Ala-Phe-Leu-PyrS2-3Thi-BztA-Ala-NH2; reading uncertain
B8: I-1913 (peptide)
peptide: Ac-[αAllylPro]D[tBuAla][B5(12)]D[Phe(3-COOH)][Nle]AFL[PyrS2(4)][3Thi][Bta]F-NH2
modifications: staple 1-4, 4-11; not fully specified; printed as Ac-PL3-Asp-Npg-B5-Asp-3COOHF-nLeu-Ala-Phe-Leu-PyrS2-3Thi-BztA-Phe-NH2; reading uncertain
B9: I-1747 (peptide)
peptide: Ac-[αAllylPro]D[tBuAla][B5(5)]D[TfeGA]AAFL[PyrS2″][3Thi][Bta]L-NH2
modifications: staple 1-4, 4-11
B10: I-1732 (peptide)
peptide: Ac-[αAllylPro]D[tBuAla][B5(4)]D[GA]AAFN[PyrS2(4)][3Thi][Bta]Q-NH2
modifications: staple 1-4, 4-11; not fully specified; reading uncertain
B11: I-1733 (peptide)
peptide: Ac-[αAllylPro]D[tBuAla][B5]D[GA]AAFN[PyrS2][3Thi][Bta]Q-NH2
modifications: staple 1-4, 4-11
B12: I-1731 (peptide)
peptide: Ac-[αAllylPro]D[tBuAla][B5]D[GA]AAFL[PyrS2][3Thi][Bta]Q-NH2
modifications: staple 1-4, 4-11
B13: I-1729 (peptide)
peptide: Ac-[αAllylPro]D[tBuAla][B5]D[(Ac)GA]AAFL[PyrS2][3Thi][Bta]Q-NH2
modifications: staple 1-4, 4-11
B14: I-1768 (peptide)
peptide: Ac-[αAllylPro]D[tBuAla][B5(5)]D[TfeGA][Lys(iPr)]AFT[PyrS2″][3Thi][Bta]F-NH2
modifications: staple 1-4, 4-11; also: -CH=CH- in each staple reduced to -CH2-CH2-
B15: I-1761 (peptide)
peptide: Ac-[αAllylPro]D[tBuAla][B5(5)]D[TfeGA][Lys(iPr)]AFL[PyrS2″][3Thi][Bta]F-NH2
modifications: staple 1-4, 4-11
B16: I-1764 (peptide)
peptide: Ac-[αAllylPro]D[tBuAla][B5(5)]D[TfeGA][Lys(iPr)]AFT[PyrS2″][3Thi][Bta]V-NH2
modifications: staple 1-4, 4-11
B17: I-1748 (peptide)
peptide: Ac-[αAllylPro]D[tBuAla][B5(5)]D[TfeGA]AAFL[PyrS2″][3Thi][Bta]L-NH2
modifications: staple 1-4, 4-11
B18: I-1763 (peptide)
peptide: Ac-[αAllylPro]D[tBuAla][B5(5)]D[TfeGA][Lys(iPr)]AFL[PyrS2″][3Thi][Bta]V-NH2
modifications: staple 1-4, 4-11
B19: I-1750 (peptide)
peptide: Ac-[αAllylPro]D[tBuAla][B5(5)]D[TfeGA]AAFL[PyrS2″][3Thi][Bta]F-NH2
modifications: staple 1-4, 4-11
B20: I-1762 (peptide)
peptide: Ac-[αAllylPro]D[tBuAla][B5(5)]D[TfeGA″][Lys(iPr)]AFT[PyrS2(4)][3Thi][Bta]F-NH2
modifications: staple 1-4, 4-11; not fully specified; reading uncertain
B21: I-1770 (peptide)
peptide: Ac-[αAllylPro]D[tBuAla][B5(5)]D[TfeGA][Lys(iPr)]AFT[PyrS2″][3Thi][Bta]V-NH2
modifications: staple 1-4, 4-11; also: -CH=CH- in each staple reduced to -CH2-CH2-
B22: I-1760 (peptide)
peptide: Ac-[αAllylPro]D[tBuAla][B5(5)]D[TfeGA][Lys(iPr)]AFT[PyrS2″][3Thi][Bta]L-NH2
modifications: staple 1-4, 4-11
B23: I-1759 (peptide)
peptide: Ac-[αAllylPro]D[tBuAla][B5(5)]D[TfeGA][Lys(iPr)]AFL[PyrS2″][3Thi][Bta]L-NH2
modifications: staple 1-4, 4-11
B24: I-420 (peptide)
peptide: Ac-[αAllylPro]DA[B5(23)]DEAAFT[S8]F[Bta]H-NH2
modifications: staple 1-4, 4-11
notes: Stapled peptide composition
B25: I-439 (peptide)
peptide: Ac-[αAllylPro]DA[B5(21)]DEAAFN[S8][His(τ-Me)][Bta]Q-NH2
modifications: staple 1-4, 4-11
notes: Stapled peptide composition
B26: I-433 (peptide)
peptide: Ac-[αAllylPro]DA[B5(24)]DEAAF[S(OMe)][S8]F[Bta]Q-NH2
modifications: staple 1-4, 4-11
notes: Stapled peptide composition
B27: I-438 (peptide)
peptide: Ac-[αAllylPro]DA[B5(26)]DEAAFN[S8][His(π-Me)][Bta]Q-NH2
modifications: staple 1-4, 4-11
notes: Stapled peptide composition
B28: I-423 (peptide)
peptide: Ac-[αAllylPro]DA[B5(23)]DEAAFT[S8]F[Bta]Q-NH2
modifications: staple 1-4, 4-11
notes: Stapled peptide composition
B29: I-440 (peptide)
peptide: XDAXDEAAFNXHXQ
modifications: not fully specified; N-terminal Ac, C-terminal NH2; non-natural PL3(1), B5(4), S8(11), 1meH(12), BztA(13); staples PL3-B5 and B5-S8 (olefin metathesis)
notes: Stapled peptide composition

Biological target: T1, B-cat-Halo (beta-catenin HaloTag …)
Test: cell-based or functional assay

NanoBRET Abs IC50 [µM]	Binder
7.1	B1
4.7	B2
6.4	B3
37.7	B4
> 20	B5
9.2	B6
20.2	B7
17.5	B8

Biological target: T2, B-cat-Halo (beta-catenin HaloTag fusion …)
Test: cell-based or functional assay

NanoBRET Abs IC50 [µM]	Binder
> 20	B9
> 20	B10
> 20	B11
29.5	B12
23	B13

Biological target: T3, B-cat-Halo
Test: cell-based or functional assay

NanoBRET Abs IC50 [µM]	Binder
> 20	B14
> 20	B15
> 20	B16
20.2	B17
> 20	B18
23.7	B19
> 20	B20
> 20	B21
> 20	B22
> 20	B23

Biological target: T4, full-length beta-Catenin (Uniprot ID …)
Test: fluorescence polarization competition; peptide titrated against 10 nM full-length beta-catenin + 10 nM 5FAM-TCF4(10-53) probe
Description: The plate was incubated protected from light for 60 minutes at 20° C. prior to read. Reads were performed on a CLARIOstar plate reader (BMG Labtech) in duplicate, and data were fitted to a 1:1 binding model with hill slope using an in-house script. All provided concentrations are final concentrations.

IC50 [µM]	Binder
0.128	B24
5	B25
0.136	B26
5	B27
0.105	B28
5	B29
